B1: DnaJ homolog subfamily C member 5, residues 16 to 77; numbered along this chain, Q9H3Z4 (parent)
chain: LYHVLGLDKNATSDDIKKSYRKLALKYHPDKNPDNPEAADKFKEINNAHAILTDATKRNIYD

± gives the uncertainty stated by the source.

The variants in this series derive from B1. In words: abundance fitness (aPCA) (normalised: wild type 0, dead -1); higher = more abundant; growth selection in yeast, the domain comes from the species named. Particulars: Homo sapiens.
Regarding LYHVLGLDKNATSDDIKKSYRKLALKYYPDKNPDNPEAADKFKEINNAHAILTDATKRNIYD [H28Y], the abundance fitness is -0.409 ± 0.13.
With LYHVLGLDKNATSDDIKKSYRKLALKYHPRKNPDNPEAADKFKEINNAHAILTDATKRNIYD [D30R] the figure was -0.207 ± 0.06; with LYHVLGLDKNATSDDIKKSYRKLALKYHPTKNPDNPEAADKFKEINNAHAILTDATKRNIYD [D30T], 0.067 ± 0.14.
In the case of LYHVLGLDKNATSDDIKKSYRKLALKYHPVKNPDNPEAADKFKEINNAHAILTDATKRNIYD [D30V] it was -0.207 ± 0.075; in that of LYHVLGLDKNATSDDIKKSYRKLALKYHPCKNPDNPEAADKFKEINNAHAILTDATKRNIYD [D30C], -0.221 ± 0.13; in that of LYHVLGLDKNATSDDIKKSYRKLALKYHPPKNPDNPEAADKFKEINNAHAILTDATKRNIYD [D30P], -0.384 ± 0.1.
Take LYHVLGLDKNATSDDIKKSYRKLALKYHPGKNPDNPEAADKFKEINNAHAILTDATKRNIYD [D30G]: the abundance fitness is -0.171 ± 0.062.
In the case of LYHVLGLDKNATSDDIKKSYRKLALKYHPYKNPDNPEAADKFKEINNAHAILTDATKRNIYD [D30Y] it was -0.288 ± 0.15; in that of LYHVLGLDKNATSDDIKKSYRKLALKYHPFKNPDNPEAADKFKEINNAHAILTDATKRNIYD [D30F], -0.828 ± 0.28.
In the case of LYHVLGLDKNATSDDIKKSYRKLALKYHPKKNPDNPEAADKFKEINNAHAILTDATKRNIYD [D30K] it was 0.084 ± 0.099; in that of LYHVLGLDKNATSDDIKKSYRKLALKYHPWKNPDNPEAADKFKEINNAHAILTDATKRNIYD [D30W], -0.749 ± 0.087; in that of LYHVLGLDKNATSDDIKKSYRKLALKYHPSKNPDNPEAADKFKEINNAHAILTDATKRNIYD [D30S], 0.099 ± 0.069.
In the case of LYHVLGLDKNATSDDIKKSYRKLALKYHPAKNPDNPEAADKFKEINNAHAILTDATKRNIYD [D30A] it was 0.14 ± 0.09.
Regarding LYHVLGLDKNATSDDIKKSYRKLALKYHPNKNPDNPEAADKFKEINNAHAILTDATKRNIYD [D30N], the abundance fitness is -0.018 ± 0.098.
Take LYHVLGLDKNATSDDIKKSYRKLALKYHPEKNPDNPEAADKFKEINNAHAILTDATKRNIYD [D30E]: the abundance fitness was determined as 0.01 ± 0.084.
In the case of LYHVLGLDKNATSDDIKKSYRKLALKYHPMKNPDNPEAADKFKEINNAHAILTDATKRNIYD [D30M] it was -0.089 ± 0.17; in that of LYHVLGLDKNATSDDIKKSYRKLALKYHPDCNPDNPEAADKFKEINNAHAILTDATKRNIYD [K31C], -0.64 ± 0.13; in that of LYHVLGLDKNATSDDIKKSYRKLALKYHPDDNPDNPEAADKFKEINNAHAILTDATKRNIYD [K31D], -0.118 ± 0.14.
In the case of LYHVLGLDKNATSDDIKKSYRKLALKYHPDSNPDNPEAADKFKEINNAHAILTDATKRNIYD [K31S] it was -0.51 ± 0.089; in that of LYHVLGLDKNATSDDIKKSYRKLALKYHPDMNPDNPEAADKFKEINNAHAILTDATKRNIYD [K31M], -0.521 ± 0.17; in that of LYHVLGLDKNATSDDIKKSYRKLALKYHPDANPDNPEAADKFKEINNAHAILTDATKRNIYD [K31A], -0.065 ± 0.085.
With LYHVLGLDKNATSDDIKKSYRKLALKYHPDYNPDNPEAADKFKEINNAHAILTDATKRNIYD [K31Y] the figure was -0.207 ± 0.15.
As to LYHVLGLDKNATSDDIKKSYRKLALKYHPDINPDNPEAADKFKEINNAHAILTDATKRNIYD [K31I], the abundance fitness is -0.06 ± 0.16.
In the case of LYHVLGLDKNATSDDIKKSYRKLALKYHPDNNPDNPEAADKFKEINNAHAILTDATKRNIYD [K31N] it was -0.452 ± 0.18.
In the case of LYHVLGLDKNATSDDIKKSYRKLALKYHPDFNPDNPEAADKFKEINNAHAILTDATKRNIYD [K31F] it was -0.371 ± 0.092.
With LYHVLGLDKNATSDDIKKSYRKLALKYHPDENPDNPEAADKFKEINNAHAILTDATKRNIYD [K31E], the abundance fitness is -0.116 ± 0.11.
In the case of LYHVLGLDKNATSDDIKKSYRKLALKYHPDTNPDNPEAADKFKEINNAHAILTDATKRNIYD [K31T], the abundance fitness was -0.139 ± 0.11.
With LYHVLGLDKNATSDDIKKSYRKLALKYHPDHNPDNPEAADKFKEINNAHAILTDATKRNIYD [K31H] the figure was -0.195 ± 0.17; with LYHVLGLDKNATSDDIKKSYRKLALKYHPDLNPDNPEAADKFKEINNAHAILTDATKRNIYD [K31L], -0.433 ± 0.083; with LYHVLGLDKNATSDDIKKSYRKLALKYHPDPNPDNPEAADKFKEINNAHAILTDATKRNIYD [K31P], -0.379 ± 0.16.
In the case of LYHVLGLDKNATSDDIKKSYRKLALKYHPDWNPDNPEAADKFKEINNAHAILTDATKRNIYD [K31W] it was -0.626 ± 0.11; in that of LYHVLGLDKNATSDDIKKSYRKLALKYHPDQNPDNPEAADKFKEINNAHAILTDATKRNIYD [K31Q], -0.06 ± 0.12; in that of LYHVLGLDKNATSDDIKKSYRKLALKYHPDKVPDNPEAADKFKEINNAHAILTDATKRNIYD [N32V], -0.396 ± 0.078.
With LYHVLGLDKNATSDDIKKSYRKLALKYHPDKRPDNPEAADKFKEINNAHAILTDATKRNIYD [N32R] the figure was -0.431 ± 0.076.
On to LYHVLGLDKNATSDDIKKSYRKLALKYHPDKLPDNPEAADKFKEINNAHAILTDATKRNIYD [N32L], for which the abundance fitness is -0.684 ± 0.073.
Regarding LYHVLGLDKNATSDDIKKSYRKLALKYHPDKAPDNPEAADKFKEINNAHAILTDATKRNIYD [N32A], the abundance fitness is -0.349 ± 0.19.
As for LYHVLGLDKNATSDDIKKSYRKLALKYHPDKFPDNPEAADKFKEINNAHAILTDATKRNIYD [N32F], the abundance fitness is -0.24 ± 0.095.
For LYHVLGLDKNATSDDIKKSYRKLALKYHPDKMPDNPEAADKFKEINNAHAILTDATKRNIYD [N32M], the abundance fitness was -0.157 ± 0.094.
With LYHVLGLDKNATSDDIKKSYRKLALKYHPDKYPDNPEAADKFKEINNAHAILTDATKRNIYD [N32Y] the figure was -0.67 ± 0.14.
LYHVLGLDKNATSDDIKKSYRKLALKYHPDKKPDNPEAADKFKEINNAHAILTDATKRNIYD [N32K]: the abundance fitness was -0.353 ± 0.11.
With LYHVLGLDKNATSDDIKKSYRKLALKYHPDKHPDNPEAADKFKEINNAHAILTDATKRNIYD [N32H] the figure was -0.009 ± 0.1.
With LYHVLGLDKNATSDDIKKSYRKLALKYHPDKSPDNPEAADKFKEINNAHAILTDATKRNIYD [N32S] the figure was -0.3 ± 0.081; with LYHVLGLDKNATSDDIKKSYRKLALKYHPDKWPDNPEAADKFKEINNAHAILTDATKRNIYD [N32W], -0.179 ± 0.081.
